Source: paper PMC8359340

Target: Synechococcus sp. PCC 7002 Type 2 β‐McdB (Synechococcus sp. PCC 7002)
Assay: SEC-MALS

For “Synechococcus sp. PCC 7002 Type 2 β‐McdB (natural protein)”, the stoichiometry N was 2.
